In IntAct's records for PubMed 18715871:

B1: Serine/threonine-protein phosphatase 4 catalytic subunit (Homo sapiens), P60510 (parent)
chain: MAEISDLDRQIEQLRRCELIKESEVKALCAKAREILVEESNVQRVDSPVTVCGDIHGQFYDLKELFRVGGDVPETNYLFMGDFVDRGFYSVETFLLLLALKVRYPDRITLIRGNHESRQITQVYGFYDECLRKYGSVTVWRYCTEIFDYLSLSAIIDGKIFCVHGGLSPSIQTLDQIRTIDRKQEVPHDGPMCDLLWSDPEDTTGWGVSPRGAGYLFGSDVVAQFNAANDIDMICRAHQLVMEGYKWHFNETVLTVWSAPNYCYRCGNVAAILELDEHLQKDFIIFEAAPQETRGIPSKKPVADYFL
partner: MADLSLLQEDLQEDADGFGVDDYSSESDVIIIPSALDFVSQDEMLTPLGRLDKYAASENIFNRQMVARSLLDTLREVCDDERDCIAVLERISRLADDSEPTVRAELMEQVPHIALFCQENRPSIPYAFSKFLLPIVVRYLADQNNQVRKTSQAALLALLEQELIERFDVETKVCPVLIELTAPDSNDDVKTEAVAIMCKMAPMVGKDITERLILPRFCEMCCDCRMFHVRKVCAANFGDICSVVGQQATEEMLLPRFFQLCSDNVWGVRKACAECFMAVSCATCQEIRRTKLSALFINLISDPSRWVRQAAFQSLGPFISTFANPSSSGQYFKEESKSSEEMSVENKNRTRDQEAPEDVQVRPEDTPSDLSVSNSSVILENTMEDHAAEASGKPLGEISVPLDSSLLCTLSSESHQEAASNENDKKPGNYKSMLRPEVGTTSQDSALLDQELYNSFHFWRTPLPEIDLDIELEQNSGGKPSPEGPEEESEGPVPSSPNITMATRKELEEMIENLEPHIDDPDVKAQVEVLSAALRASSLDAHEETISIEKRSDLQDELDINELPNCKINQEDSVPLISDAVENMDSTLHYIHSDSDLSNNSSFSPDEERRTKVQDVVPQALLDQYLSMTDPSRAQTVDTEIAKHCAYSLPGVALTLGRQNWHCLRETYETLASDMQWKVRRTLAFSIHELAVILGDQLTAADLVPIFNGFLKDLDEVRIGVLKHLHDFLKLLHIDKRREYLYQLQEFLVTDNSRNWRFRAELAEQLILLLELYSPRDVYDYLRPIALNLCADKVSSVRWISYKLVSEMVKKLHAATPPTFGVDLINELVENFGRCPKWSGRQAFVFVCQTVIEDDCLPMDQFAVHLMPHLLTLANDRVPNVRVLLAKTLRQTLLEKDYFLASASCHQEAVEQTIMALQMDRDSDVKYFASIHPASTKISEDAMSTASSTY

Variants of: B1
Conditions: with pp4r1_human PPP4R1, Q8TF05

effect of a mutation on the interaction	Variant
disrupting interaction	N76D
disrupting interaction	E64K
decreasing interaction	E277K
disrupting interaction	R107E
disrupting interaction	E39K
